Assay results taken from US20160143985.

Experiments:
[1] = biological target: T1, Ac-YVAD-AMC (model substrate, from Enzo, Inc.)
T1 chain: YVAD

[2] = biological target: alpha-synuclein, wild-type full-length human (140 amino acids)

B1: caspase-1 (ICE; interleukin-1-beta converting enzyme), purified, activated (protein)
chain: NPAMPTSSGSEGNVKLCSLEEAQRIWKQKSAEIYPIMDKSSRTRLALIICNEEFDSIPRRTGAEVDITGMTMLLQNLGYSVDVKKNLTASDMTTELEAFAHRPEHKTSDSTFLVFMSHGIREGICGKKHSEQVPDILQLNAIFNMLNTKNCPSLKDKPKVIIIQACRGDSPGVVWFKDSVGVSGNLSLPTTEEFEDDAIKKAHIEKDFIAFCSSTPDNVSWRHPTMGSVFIGRLIEHMQEYACSCDVEEIFRKVRFSFEQPDGRAQMPTTERVTLTRCFYLFPGH
activity against a model substrate [1]: 110 µM/min/mg | Western blot of ICE digested alpha-synuclein with increasing amounts of ICE (2 to 12 µg) [2]: Appearance of a smaller fragment of synuclein below 17 kD with intensity increasing with amount of ICE | cleavage of alpha-synuclein in vitro (SDS-PAGE and western blot with anti-synuclein antibody) [2]: Purified, activated caspase-1 does indeed cleave alpha-synuclein
